Test results reported in patent US8894997B2.

What was measured:
[1] = biological target: 1918 HA displayed on virus-like particles, reconstituted 1918 virus or transfected mammalian cells (influenza A/South Carolina/1/18 (H1N1) virus)
[2] = biological target: HA of A/Mexico/4108/2009 virus (influenza A/Mexico/4108/2009 (H1N1) virus)
[3] = biological target: Recombinant A/South Carolina/1/1918 virus HA (influenza A/South Carolina/1/18 (H1N1) virus)
[4] = biological target: HA of influenza A/Weiss/43 (H1N1) virus (influenza A/Weiss/43 (H1N1) virus)
[5] = biological target: HA of influenza A/USSR/92/77 (H1N1) virus (influenza A/USSR/92/77 (H1N1) virus)
[6] = biological target: HA of influenza A/Swine/Iowa/15/30 (H1N1) virus (influenza A/Swine/Iowa/15/30 (H1N1) virus)
[7] = biological target: 1918 HA displayed on virus-like particles, reconstituted 1918 virus or transfected mammalian cells (influenza A/South Carolina/1/18 (H1N1) virus); remark: listed apart in the source

Substance	HAI, reciprocal titer of serum (reciprocal titer) [1]	HAI, reciprocal titer of serum (reciprocal titer) [2]	Kd [3] [nM]	koff [3] [s⁻¹]	kon [3] [M⁻¹ s⁻¹]	specific neutralizing activity [4] [µg/mL]	Specific HAI activity [5] [µg/mL]	specific neutralizing activity [5] [µg/mL]	Specific HAI activity [6] [µg/mL]	Specific HAI activity [7] [µg/mL]	HAI, specific activity [1] [µg/mL]	HAI, specific activity [2] [µg/mL]	Neut Ab, specific activity [2] [µg/mL]
Normal mouse serum (polyclonal serum or antibody)	< 10	< 10											
mAb 1F1 (antibody)			5.4	0.00017	31000	1.8	0.16	0.88	0.04	0.08	0.04	> 5	> 5
